{"source": "patent US20260185070A1", "about": "“CRISPR-Cas Effector Polypeptides, Lipid Nanoparticles, and Methods of Use Thereof” (The Regents of the University of California, priority 2022, published 2026)", "molecules": {"B1": {"name": "GeoCas9: Geobacillus stearothermophilus CRISPR-Cas effector polypeptide, SEQ ID NO: 1; thermostable type II-C Cas9 (protein, listed as Geobacillus stearothermophilus)", "chain": "MRYKIGLDIGITSVGWAVMNLDIPRIEDLGVRIFDRAENPQTGESLALPRRLARSARRRLRRRKHRLERIRRLVIREGILTKEELDKLFEEKHEIDVWQLRVEALDRKLNNDELARVLLHLAKRRGFKSNRKSERSNKENSTMLKHIEENRAILSSYRTVGEMIVKDPKFALHKRNKGENYTNTIARDDLEREIRLIFSKQREFGNMSCTEEFENEYITIWASQRPVASKDDIEKKVGFCTFEPKEKRAPKATYTFQSFIAWEHINKLRLISPSGARGLTDEERRLLYEQAFQKNKITYHDIRTLLHLPDDTYFKGIVYDRGESRKQNENIRFLELDAYHQIRKAVDKVYGKGKSSSFLPIDFDTFGYALTLFKDDADIHSYLRNEYEQNGKRMPNLANKVYDNELIEELLNLSFTKFGHLSLKALRSILPYMEQGEVYSSACERAGYTFTGPKKKQKTMLLPNIPPIANPVVMRALTQARKVVNAIIKKYGSPVSIHIELARDLSQTFDERRKTKKEQDENRKKNETAIRQLMEYGLTLNPTGHDIVKFKLWSEQNGRCAYSLQPIEIERLLEPGYVEVDHVIPYSRSLDDSYTNKVLVLTRENREKGNRIPAEYLGVGTERWQQFETFVLTNKQFSKKKRDRLLRLHYDENEETEFKNRNLNDTRYISRFFANFIREHLKFAESDDKQKVYTVNGRVTAHLRSRWEFNKNREESDLHHAVDAVIVACTTPSDIAKVTAFYQRREQNKELAKKTEPHFPQPWPHFADELRARLSKHPKESIKALNLGNYDDQKLESLQPVFVSRMPKRSVTGAAHQETLRRYVGIDERSGKIQTVVKTKLSEIKLDASGHFPMYGKESDPRTYEAIRQRLLEHNNDPKKAFQEPLYKPKKNGEPGPVIRTVKIIDTKNQVIPLNDGKTVAYNSNIVRVDVFEKDGKYYCVPVYTMDIMKGILPNKAIEPNKPYSEWKEMTEDYTFRFSLYPNDLIRIELPREKTVKTAAGEEINVKDVFVYYKTIDSANGGLELISHDHRFSLRGVGSRTLKRFEKYQVDVLGNIYKVRGEKRVGLASSAHSKPGKTIRPLQSTRD"}}, "key": {"NPCs": {"test_system": "NPCs", "assay": "NPC viability with LNPs containing different pegylated lipids", "type": "cell-based, mouse", "from_the_text": "Several pegylated lipids, commercial and synthetic, were examiner for their ability to encapsulate and deliver iGeoCas9 RNPs in LNPs (FIG. 48c). […] The reduced toxicity and enhanced delivery efficiency of these 3 PEGylated lipids stems from the pH-sensitive, acid-degradable acetal linker used in their synthesis (FIG. 49): the labile acetal linker could be cleaved in the late endosome stage of LNP delivery with a pH of 5-6, which frees the PEG moiety from the lipid molecules to reduce cytotoxicity and meanwhile destabilizes the endosome to promote the release of RNP into the cytosol. Further optimization of other parameters (e.g., mole and volume ratios of lipids to RNP, and salt concentration in the buffer, FIG. 50b) in LNP assembly established two sets of lipid formulations, i.e., standard formula (with DOTAP as the cationic lipid) and cationic formula (with ADC as the cationic lipid), which encapsulate GeoCas9 RNPs with good particle uniformity (diameter: 170-180 nm, PDI: 0.13-0.17) (FIG. 41b)."}, "[1]": {"test_system": "EGFP transgene in a model HEK293T cell line", "assay": "EGFP-to-BFP HDR by LNP co-delivery of RNP and ssDNA template in HEK293T cells", "type": "cell-based, human", "conditions": "additive in RNP LNPs; in words", "from_the_text": "It was investigated if the co-delivery of iGeoCas9 RNPs and ssDNA templates in LNPs could switch EGFP to the blue fluorescent protein (BFP) in a model HEK293T cell line (FIG. 43b). In this cell assay, editing of the chromophore Thr-Tyr-Gly in the EGFP transgene followed by HDR to install a Ser/Thr-His-Gly chromophore turns EGFP into BFP. Four sgRNAs, rEGFP-R1 to R4, were designed to target the coding and non-coding strands in the chromophore region for editing. To avoid possible recutting events after the incorporation of the desired edits, four ssDNA HDR templates were designed to introduce GFP-to-BFP edits together with additional silent mutations in the DNA sequence. […] The HDR level was quantified to be between 20-40% by flow cytometry with 50-75% of non-homologous end-joining (NHEJ) indicated as EGFP knockdown (FIGS. 4b and 51).\nLNP delivery: 4-6.5k cells/well were seeded in 96-well plates 48 hours prior to LNP treatment (HEK293 cells: 4-5k. NPCs: 5-6k, and 16HBEge cells: 6-6.5k). The culture media was refreshed 24 hours after LNP treatment. HEK293T cells were split after 2 additional days with a ratio of […] based on cell confluency. […]\nCell fluorescence was assayed on an Attune NxT acoustic focusing cytometer (Thermo Fisher Scientific) equipped with 554 nm excitation laser and 585/16 emission filter (tdTomato). […] Data were analyzed using Attune Cytometric Software v5.1.1."}, "ccdB toxin gene": {"test_system": "ccdB toxin gene", "assay": "bacterial dual-plasmid selection assay (Cas9 cleavage of ccdB plasmid, survival rate)", "type": "cell-based, E. coli", "conditions": "for survival rate: sgRNA target sequence #6, PAM ggatGAAA", "method": "A bacterial dual-plasmid selection system was employed for the directed evolution of GeoCas9, which has been successfully employed for engineering other CRISPR Cas effectors. […] To search for a reliable evolution starting point with minimal activity in the E. coli assay, 20 different sgRNAs that target the ccdB gene at the protospacers associated with different PAM sequences were screened (FIG. 46d) and selection under two sets of conditions was performed (37 C or 30 C for 1.5 hours). […] Libraries of GeoCas9 mutants were generated by targeting different domains of the protein for random mutagenesis (FIG. 46a) and then subjected to the selection system under the conditions at 30° C.\nA chloramphenicol-resistant (CAM+) bacterial expression plasmid was built to have the insert gene of GeoCas9 together with its corresponding sgRNA that targets the ccdB gene in the selection plasmid with a PAM of GAAA (g6). Libraries of GeoCas9 mutants were generated by error-prone PCR to introduce random mutagenesis in three different regions (BH-Rec, RuvC-HNH-WED, and WED-PI). The error-prone PCR (with an error rate of 3- to 5-nucleotide mutations per kilobase) was carried out with the Taq DNA polymerase (New England BioLabs) in a reaction containing 2 μl of 10 mM primers, 1.5 μl of 10 mM MnCl2, 2 ng of template plasmid. The plasmid libraries were generated by ligating the mutated fragments with the remaining part of the plasmid through Gibson assembly. The plasmid libraries (-100 ng DNA after clean-up) were electroporated into 50 μl of electronically competent cells made from E. coli strain BW25141(DE3) that contains the selection plasmid encoding the arabinose-inducible ccdB toxin gene. After recovery of the electroporated bacteria in 750 μl of SOB for 1.5 hours at 30° C., the bacteria culture was concentrated; 1% of the total culture was plated onto a Petri agar dish containing only CAM (as control), and the remainder culture was plated on another Petri agar-dish containing both arabinose and CAM. […]"}, "[2]": {"assay": "protein melting temperature, thermal shift assay", "type": "physicochemical", "protocol": "Protein melting temperatures were measured using the thermal shift assay (GloMelt™, CAT #33021). The assay was performed on a quantitative PCR system with a temperature increase rate of 2° C./min. The protein melting temperatures were determined as the peak values in the derivative curves of the melting curves."}}, "data": [{"molecule": "DMG-PEG", "values": [{"measurement": "toxicity / biocompatibility with NPCs", "setting": "NPCs", "value": "detrimental to NPC viability"}]}, {"molecule": "heparin", "values": [{"measurement": "effect of anionic polymer additive on editing levels", "setting": "[1]", "value": "reduced editing"}]}, {"molecule": "B1", "values": [{"measurement": "survival rate", "setting": "ccdB toxin gene; selection 30° C. for 1.5 hours", "value": "< 0.1", "unit": "%"}, {"measurement": "survival rate", "setting": "ccdB toxin gene; selection 37 C for 1.5 hours", "value": "2-5%"}, {"measurement": "survival in the bacterial assay", "setting": "ccdB toxin gene; validation of selected mutant vs wild-type, temperature not stated", "value": "< 5", "unit": "%"}, {"measurement": "Tm (thermostability)", "setting": "[2]", "value": 60, "unit": "°C"}]}]}
